Reference: US20250313620A1

Columns and labels:
[1] = target: PD-1 on in vitro activated primary human T cells (human) (UniProt Q15116); assay: flow cytometry, PD-1 staining of activated T cells treated with IL-15Rα-Fc precomplexed with IL-15, 1 nM
[2] = target: PD-1 on in vitro activated primary human T cells (human) (UniProt Q15116); assay: flow cytometry, PD-1 staining of activated T cells, media only
[3] = target: PD-1 on in vitro activated primary human T cells (human) (UniProt Q15116); assay: flow cytometry, PD-1 staining of activated T cells treated with RV2 precomplexed with IL-15, 100 nM
[4] = target: PD-1 on in vitro activated primary human T cells (human) (UniProt Q15116); assay: flow cytometry, PD-1 staining of activated T cells treated with RV2 precomplexed with IL-15, 10 nM
[5] = target: PD-1 on in vitro activated primary human T cells (human) (UniProt Q15116); assay: flow cytometry, PD-1 staining of activated T cells treated with RV2 precomplexed with IL-15, 1 nM
[6] = target: PD-1 on in vitro activated primary human T cells (human) (UniProt Q15116); assay: flow cytometry, PD-1 staining of activated T cells treated with IL-15 100 nM
[7] = target: PD-1 on in vitro activated primary human T cells (human) (UniProt Q15116); assay: flow cytometry, PD-1 staining of activated T cells treated with RV1 precomplexed with IL-15, 1 nM
[8] = target: PD-1 on in vitro activated primary human T cells (human) (UniProt Q15116); assay: flow cytometry, PD-1 staining of activated T cells treated with IL-15 10 nM
[9] = target: PD-1 on in vitro activated primary human T cells (human) (UniProt Q15116); assay: flow cytometry, PD-1 staining of activated T cells treated with RV1 precomplexed with IL-15, 10 nM
[10] = target: PD-1 on in vitro activated primary human T cells (human) (UniProt Q15116); assay: flow cytometry, PD-1 staining of activated T cells treated with IL-15Rα-Fc precomplexed with IL-15, 10 nM
[11] = target: PD-1 on in vitro activated primary human T cells (human) (UniProt Q15116); assay: flow cytometry, PD-1 staining of Ki-67 positive activated T cells, average over the non-PD-1-binding treatments
[12] = target: PD-1 on in vitro activated primary human T cells (human) (UniProt Q15116); assay: flow cytometry, PD-1 staining of activated T cells treated with IL-15 1 nM
[13] = target: PD-1 on in vitro activated primary human T cells (human) (UniProt Q15116); assay: flow cytometry, PD-1 staining of activated T cells treated with IL-15Rα-Fc precomplexed with IL-15, 100 nM
[14] = target: PD-1 on in vitro activated primary human T cells (human) (UniProt Q15116); assay: flow cytometry, PD-1 staining of activated T cells treated with RV1 precomplexed with IL-15, 100 nM

PD-1 on in vitro activated primary human T cells (human), sequence (Q15116 25-288): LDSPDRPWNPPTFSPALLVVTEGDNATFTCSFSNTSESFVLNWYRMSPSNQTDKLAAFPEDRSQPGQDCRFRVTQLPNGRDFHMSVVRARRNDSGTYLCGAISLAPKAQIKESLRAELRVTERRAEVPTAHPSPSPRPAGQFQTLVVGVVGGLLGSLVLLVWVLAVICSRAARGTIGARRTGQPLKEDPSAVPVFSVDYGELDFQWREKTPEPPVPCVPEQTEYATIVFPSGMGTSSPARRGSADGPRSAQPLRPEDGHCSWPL

B1: PD-1 detection antibody (clone EH12.2H7) (antibody, from another filing, V domains shown)
VH: QVQLQQSGAELAKPGASVQMSCKASGYSFTSSWIHWVKQRPGQGLEWIGYIYPSTGFTEYNQKFKDKATLTADKSSSTAYMQLSSLTSEDSAVYYCARWRDSSGYHAMDYWGQGTSVTVSS
VL: DIVLTQSPASLTVSLGQRATISCRASQSVSTSGYSYMHWYQQKPGQPPKLLIKFGSNLESGIPARFSGSGSGTDFTLNIHPVEEEDTATYYCQHSWEIPYTFGGGTKLEIK
[1]
  MFI of PD-1 in Ki-67 positive CD4+ T cells: 4280 MFI
  MFI of PD-1 in Ki-67 positive CD8+ T cells: 1690 MFI
[2]
  MFI of PD-1 in Ki-67 positive CD4+ T cells: 4020 MFI
  MFI of PD-1 in Ki-67 positive CD8+ T cells: 2250 MFI
[3]
  MFI of PD-1 in Ki-67 positive CD4+ T cells: 5840 MFI
  MFI of PD-1 in Ki-67 positive CD8+ T cells: 2820 MFI
[4]
  MFI of PD-1 in Ki-67 positive CD4+ T cells: 5070 MFI
  MFI of PD-1 in Ki-67 positive CD8+ T cells: 2020 MFI
[5]
  MFI of PD-1 in Ki-67 positive CD4+ T cells: 4200 MFI
  MFI of PD-1 in Ki-67 positive CD8+ T cells: 1920 MFI
[6]
  MFI of PD-1 in Ki-67 positive CD4+ T cells: 6550 MFI
  MFI of PD-1 in Ki-67 positive CD8+ T cells: 3220 MFI
[7]
  MFI of PD-1 in Ki-67 positive CD4+ T cells: 4100 MFI
  MFI of PD-1 in Ki-67 positive CD8+ T cells: 1870 MFI
[8]
  MFI of PD-1 in Ki-67 positive CD4+ T cells: 6440 MFI
  MFI of PD-1 in Ki-67 positive CD8+ T cells: 3190 MFI
[9]
  MFI of PD-1 in Ki-67 positive CD4+ T cells: 4620 MFI
  MFI of PD-1 in Ki-67 positive CD8+ T cells: 1890 MFI
[10]
  MFI of PD-1 in Ki-67 positive CD4+ T cells: 4480 MFI
  MFI of PD-1 in Ki-67 positive CD8+ T cells: 2120 MFI
[11]
  MFI of PD-1 staining, average, CD4+ cells: 4830 MFI
  MFI of PD-1 staining, average, CD8+ cells: 2190 MFI
[12]
  MFI of PD-1 in Ki-67 positive CD4+ T cells: 4870 MFI
  MFI of PD-1 in Ki-67 positive CD8+ T cells: 2050 MFI
[13]
  MFI of PD-1 in Ki-67 positive CD4+ T cells: 4380 MFI
  MFI of PD-1 in Ki-67 positive CD8+ T cells: 2110 MFI
[14]
  MFI of PD-1 in Ki-67 positive CD4+ T cells: 4830 MFI
  MFI of PD-1 in Ki-67 positive CD8+ T cells: 2370 MFI
